The DeepSol protein solubility set

Experiment: soluble on expression in E. coli; label from the status in PepcDB or PDB records

| Sequence | soluble on expression in E. coli |
| --- | --- |
| MGSDKIHHHHHHMNADDAYKPIQRATLSEASWRILRIAQSVELRHPVSHETALAIWGVELPADSDCSVVSLRSSQGGYAGTDVDYGWSGESPAFGHSEHSIRLGQDFPDSDFQYFPDSQAVSRNQIPGLRQSASQPSQFPQSPAKLHTVAQSPARRGRVKKSTSVSADVTVHVWKGLSARHVREVAGVPVLMPVPAWSLAAGRWGIQDIVMVAESLIRHRFATRKGLIEFVKTESVPYRSKCLDALALVQSGSDSPKETEMRLTLVCYGLPIMQPNCVVPGVNFANGAAVTLDLVDAEHRFGLDYQGDHHRTDRAQYRRDQNKLSRLAAAGWTVFSVTQLDLSDELHRAAFAMNVAHALSSIVGRPIGVTTPLPWRKVVLRYRKARKLRLLD | not soluble |
| YLSDVISSPQFEQAKSPTTVVLGQDIAGEAVIADIAKMPHVLVAGTTGSGKSVGVNVMILSMLYKASPEDLRFIMIDPKMLELSIYEGIPHLLAEVVTDMKDASNALRWCVGEMERRYKLMSALGVRNVKGFNEKLKMAAEAGHPIHDPFWQEGDSMDTEPPLLEKLPYIVVVVDEFADLMMVVGKKVEELIARLAQKARAAGIHLILATQRPSV | not soluble |
| MSSDDYESIDTPRVASLADMNRLPTQSRHSSYSTDDDEDVTPTPSASNSAPKNTILDPLQAQFLHPNSENSDIDEPRVQLREKKKATRAQDATVSHFLEDQVPNQKFKRRSAERHSMLAGAADFASRRSPFHLSGANGSGRWTDLFSSSRFKRKQRQELNNVPSSSYSNNDYGTYAGTQSIGGFSIASNSTGESFALSGTEDEIREEFRKIMLDKGLPEADKIISNTPLDQMKMMIENSRKQDNQAKGRSPEWVVRVLGEILKTKNIPECKQDIVTVRVQLVGQGVSFLNKFAVEVHDESGRTGADLICCLYSLVLKRLRSSEVGSKYELDLIDFLQEIVRCVRTLINTHVGLVLVLRRNSPVYSLLIQTLCVLNRREQNDHEAAEIRAIRVDVVRTCYTLIFVQHDTLSTPIEMTGQQKMFMELSLIAKAESKRLNEPVSRFRPLISCIDFLESRDPKQGMYVLLMINMMINGVDRNISDDQMWTEETMWQARMRLRSEAAKDKLHKYIEKFTTSETVNSQIRDVAQNMLTEHNADLETLMGKLENVKGEYDTLDGCFELLAANSEATGTETVLLSILQLMTLTNEDMSTKRSYMKLIETAISDILLHRTPIDPQADYKFVFEVPVAEIIDKMQDEEMAKKVRQATSAKQEAVAMQGEYWKTLCDFQKEAEELRKHINDPKIPLPPPTKMNLSAPSTSAGGSSALPPITGGPPPPPGLPPITGGPPPPPPPGGLPPITGGPPPPPPPGGLPPISGGPPPPPPPPGGCPPPPPPPPPGGFKGGPPPPPPPGMFAPMAPVIPDYLPPKKVPKVDGPMRKFPWGAHTINPRDIPRESFWVGTNEEQLTSDRMFDRLRTKFATKPAANSGTLGGVLNSKKKVKTAQVIHDDKLLQKLGILQGSIKMSHSELKLAILEVNEKVLTVGFLEQLRSAMPVEKELIDKLRAVNKAQFEEMPEGEQFVTRLLQIQGLPLRLDLVLFKMRFSEVLNELKPAMSSVMEACEEVRASEGFRTFLKLVLATGNFMGGATKNYSSAYAFDMRMLTRLVDTKDVDNRHTLLHHLIEEMKRIDPRRARFALTDFHHCIESSRVNADEIRKTVQLTENNIKKLENCLKVYKIQGERDLFDEKMRPFHEKAVKEFSTVSSMCGKMKNDWESLVKYYAFNDKKYPMEEFFADIRTFSEQYSNAWKELDAEAEAKRKEAEFETQKRKQLQQSQQERKPLQERQAINRVPRTPAAMIRVSTAADKAGVLDELERATGNADFLQTLMSATNSRTPRSGLPARTRGGGRLGGGLDRQRSRHQNALGQLQDLTGCASEPVLSGQFARSRNVPQNDLQRQNMELPSSVKPTTALDRAKAFGVGLPIGQNELKVRVRRKGQPAVPVTNINGTSQISPTHKENDPTGSSSTSSGPASSNTATSSSSGTVVPSTDDLLARLNDF | not soluble |
| VLLHSKEVAYIAGLMAEELGLDAKLARRAGLLHDIGKAISHELGGSHTDIGVELARKYGEPDAVINAIRAHHEEEPVRYPEVALVCAADALSAA | not soluble |
| MGHHHHHHSHMPLTSAFRAVDNDPGIIVWRIEKMELALVPVSAHGNFYEGDCYVILSTRRVASLLSQDIHFWIGKDSSQDEQSCAAIYTTQLDDYLGGSPVQHREVQYHESDTFRGYFKQGIIYKQGGVASGMKHVETNTYDVKRLLHVKGKRNIRATEVEMSWDSFNRGDVFLLDLGKVIIQWNGPESNSGERLKAMLLAKDIRDRERGGRAEIGVIEGDKEAASPELMKVLQDTLGRRSIIKPTVPDEIID | soluble |
| MSLESAVKAESAGKSVAASLKARLEKTYSAQDLKVLSVSETPVKGIYEVVVSGRQIIYTDAEGGYMFVGELINIDTRKNLTEERAADLNKIDFASLPLDKAIKEVRGNGKLKVAVFSDPDCPFCKRLEHEFEKMTDVTVYSFMMPIAGLHPDAARKAQILWCQPDRAKAWTDWMRKGKFPVGGSICDNPVAETTSLGEQFGFNGTPTLVFPNGRTQSGYSPMPQLEEIIRKNQQEGHHHHHH | soluble |
| MAHHHHHHMFTLLCCADLAGNKVNLEIALDTFPATLRGLESDIARIFNREVEKSGAVEHNANVAEPFQVMSVFVYDDVLLRWTKLESLTQLHEYDQLYVFQPQTQWHVDVQKELPPPRPPARSRASSITGASGTLASLQVNGCASSPWPRSGISTRISAAGDIDTSHSPVPSRSPARAQLEEHRREEERLAHRLSTLRRVREHLEREAQREEEEERRRRSLETYRLLKCKEEEIWSQRDALARAEEEFRQFLAEKQRLMGQSPSP | not soluble |
| MLSIVCPPLSAQWAENFDHITALTSPPWRGQIADFAIIKKQLKLYVEYPDDLNESRIAITVPYFKTTTWKGDVKLDFRPTINNYLYCYLYCYGEISDSEFDYVALRWGSGSKGVDLLDVRLRVLPSGESSIVRSDILIDGSAYPLGTKPFTSFTVTYAVGSGWQLWVNGANDTGNETVLIGSSSFDVESPFQSGGLGIDCFYTKSRSKAFSFDNLSVSEGAVSPPEEEEEPIPLGKPTLNELMANPLEGGSEYIELYNPTDKPVVPSKFAIGILRNGSYTTTTALPTVADTLYPGQYIVFAKKSEGVTDFYPQAQNVVTMSNLPQLANKGFTIGLFEEGLDQPLEEVVYSPKMLGEGNVTRRGVSLERISFETPASDPTNWAGGLPSAGYATPGYLNSQSSNADTTQLGLPNNETEGNGKSYLPPASIAEE | not soluble |
| MVSYKLTYFNGRGAGEVSRQIFAYAGQQYEDNRVTQEQWPALKETCAAPFGQLPFLEVDGKKLAQSHAIARFLAREFKLNGKTAWEEAQVNSLADQYKDYSSEARPYFYAVMGFGPGDVETLKKDIFLPAFEKFYGFLVNFLKASGSGFLVGDSLTWIDLAIAQHSADLIAKGGDFSKFPELKAHAEKIQAIPQIKKWIETRPVTPF | soluble |
| MSLIRVAIADDHQTLIDGISLRFDGNESIDLVFSANDGKDFLKQLKITPVDLVITDLKMPKMDGVTLAREIKRDFKNVKVIVLSMFDQPDVINKMVDVDVDGYILKTSSLDELVTAIGEVNKGKKYFDKHLHGITSLFDVNSTSSKTSLSNAEKDILNLIAEGKTSQEIANERACAVSTIHTHRRNMAHKLELYGKGELLRYAMDKKYNFEEGHHHHHH | soluble |
| KGESYKGKVAVASVVLNRTEKKGFPDTIRGVIYQKNAFEPVANGSINQKPDKESIEAAEEALSSKNRETDAIFFYNPKTASDNWIRSRKIVEKIGRHVFAV | not soluble |
| MAGVRQHGWRAIPAVCSEYGADTLPDRYRSDGRCLLFRQQAGISALKQELEVKTPYRAMNHPVIGVVTKADLASMEQISLVKCWLREAGAHNVLVTSAVNNNGVTELFALLHTEEGCR | not soluble |
| MSSLPETLMNRLHDHERLTQNEGEALYDLDLFTLGREADRRRVKKHGKKVFFNSNRHINPTNICQDICKFCAFSSHRKNPNPYAMSIDEILEIAKESTALGARELHVVSAHNPNYGYQWYGEMFKTIKEALPHIHLKAMTAAEVDFLSRRFEKPYEQVLEDMLLWGVDSMPGGGAEIFDEEVRARLCGGKVSSGRWLEIHGYWHSLGKQSNATMLFGHIENRTHRIDHMLRLRELQDRYGGFNAFIPLLYQKENNFLKVERFPTGQEILKTLAISRILLDNIPHIKAYWATLGLNLAMVAQEFGADDLDGTIQKESIQSAAGSGSGHGVSKEELIFQIKDAGFIPVERDSLYNEIQIYA | not soluble |
| MAEGGAADLDTQRSDIATLLKTSLRKGDTWYLVDSRWFKQWKKYVGFDSWDKYQMGDQNVYPGPIDNSGLLKDGDAQSLKEHLIDELDYILLPTEGWNKLVSWYTLMEGQEPIARKVVEQGMFVKHCKVEVYLTELKLCENGNMNNVVTRRFSKADTIDTIEKEIRKIFSIPDEKETRLWNKYMSNTFEPLNKPDSTIQDAGLYQGQVLVIEQKNEDGTWPRGPSTPNVKNSNYCLPSYTAYKNYDYSEPGRNNEQPGLCGLSNLGNTCFMNSAIQCLSNTPPLTEYFLNDKYQEELNFDNPLGMRGEIAKSYAELIKQMWSGKFSYVTPRAFKTQVGRFAPQFSGYQQQDCQELLAFLLDGLHEDLNRIRKKPYIQLKDADGRPDKVVAEEAWENHLKRNDSIIVDIFHGLFKSTLVCPECAKISVTFDPFCYLTLPLPMKKERTLEVYLVRMDPLTKPMQYKVVVPKIGNILDLCTALSALSGIPADKMIVTDIYNHRFHRIFAMDENLSSIMERDDIYVFEININRTEDTEHVIIPVCLREKFRHSSYTHHTGSSLFGQPFLMAVPRNNTEDKLYNLLLLRMCRYVKISTETEETEGSLHCCKDQNINGNGPNGIHEEGSPSEMETDEPDDESSQDQELPSENENSQSEDSVGGDNDSENGLCTEDTCKGQLTGHKKRLFTFQFNNLGNTDINYIKDDTRHIRFDDRQLRLDERSFLALDWDPDLKKRYFDENAAEDFEKHESVEYKPPKKPFVKLKDCIELFTTKEKLGAEDPWYCPNCKEHQQATKKLDLWSLPPVLVVHLKRFSYSRYMRDKLDTLVDFPINDLDMSEFLINPNAGPCRYNLIAVSNHYGGMGGGHYTAFAKNKDDGKWYYFDDSSVSTASEDQIVSKAAYVLFYQRQDTFSGTGFFPLDRETKGASAATGIPLESDEDSNDNDNDIENENCMHTN | soluble |
| MFLEECKTHFNTDCLYELLGVKKDCDEKALKKGYYRQSMRWHPDKSNLVEEDMQTYTTKFQLLNKAYQILSDEEKRKIYDETGSVDDEAGELNEDALKAWRMIFKKVTKEDIDSFMKTYQGSREQKDELVVHYEKFNGDIAKIREYAIGFDGVEELKEALDKLIDDGEIEKTKKYETSTSDKKMKAYKRKAEKEAIEVENMTQNNSDLVALIQGRQKERGTSFLDSLAAKYAPSSSKKAKRQ | not soluble |
| GMQDERWNHPLYTTTAINDEELEGHAYIPGGLKVQTSSPMNDHPGTNPEQLLGLSLSTCLEATLEAVEKEHGLPHTGAVRVKVAFIGARAEYQFLVHAQVMVKGVDFDTAKAFTNEIENRCPVSKLLKNSGNYTIETVTDFKD | soluble |
| MGSDKIHHHHHHMNRLRTSFQQTTGQISGHGKRNVGVLKTAFAAVADEMASDQYGTGAIIEPFEQKFADVLGMDDAVFFPSGTMAQQVALRIWSDETDNRTVAYHPLCHLEIHEQDGLKELHPIETILVGAADRLMTLDEIKALPDIACLLLELPQREIGGVAPAFSELETISRYCRERGIRLHLDGARLFEMLPYYEKTAAEIAGLFDSIYISFYKGLGGIAGAILAGPAAFCQTARIWKRRYGGDLISLYPYIVSADYYYELRKDRMGQYYEQAKQLAEQFNALPGVHTTPEVPVSNMFHLHFDGQAADISPKLEQVQEETGLGFVGYLVDKDGYCSTEISVGDAYGELDQQTRDAGFARLRQAFS | not soluble |
